Results taken from US20140363522A1.

Assays:
Test in all cases: cell-based or functional assay
[1] = molecular target: interleukin (IL)-6 (human) (UniProt P05231)
[2] = molecular target: interleukin (IL)-8 (human) (UniProt P10145)
[3] = molecular target: monocyte chemoattractant protein-1 (human) (UniProt P13500)
[4] = molecular target: tissue inhibitor of metalloproteinases-1 (human) (UniProt P01033)
tissue inhibitor of metalloproteinases-1 (human), sequence (P01033 24-207 limits assumed): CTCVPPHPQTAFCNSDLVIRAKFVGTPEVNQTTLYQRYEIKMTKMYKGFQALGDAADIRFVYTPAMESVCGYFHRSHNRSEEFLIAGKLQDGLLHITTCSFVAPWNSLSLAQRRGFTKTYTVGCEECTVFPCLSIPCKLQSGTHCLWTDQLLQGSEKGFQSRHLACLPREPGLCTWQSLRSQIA

interleukin (IL)-8 (human), sequence (P10145 28-99 limits assumed): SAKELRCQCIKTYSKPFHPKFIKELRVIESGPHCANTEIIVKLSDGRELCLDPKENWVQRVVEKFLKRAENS
interleukin (IL)-6 (human), sequence (P05231 30-212 limits assumed): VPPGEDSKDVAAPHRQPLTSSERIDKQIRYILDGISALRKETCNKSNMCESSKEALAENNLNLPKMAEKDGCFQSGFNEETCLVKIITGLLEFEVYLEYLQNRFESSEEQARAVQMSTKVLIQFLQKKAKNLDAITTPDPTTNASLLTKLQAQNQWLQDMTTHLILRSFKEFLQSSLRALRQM
monocyte chemoattractant protein-1 (human), sequence (P13500 24-99 limits assumed): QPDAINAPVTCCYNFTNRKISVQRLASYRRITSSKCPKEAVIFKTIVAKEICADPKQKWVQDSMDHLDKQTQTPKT

IL-6 inhibitory antibody (R&D Systems AB206NA)
decrease in in vitro ovarian cancer cell homing toward adipocytes (Matrigel plug, fluorescence) [1]: > 50%

IL-8 inhibitory antibody (R&D Systems AB208NA)
decrease in in vitro ovarian cancer cell homing toward adipocytes (Matrigel plug, fluorescence) [2]: > 50%

MCP-1 inhibitory antibody (R&D Systems AB279NA)
decrease in in vitro ovarian cancer cell homing toward adipocytes (Matrigel plug, fluorescence) [3]: > 50%

TIMP-1-specific inhibitory antibody (R&D Systems AF970)
decrease in in vitro ovarian cancer cell homing toward adipocytes (Matrigel plug, fluorescence) [4]: > 50%
